In patent US20230212237:

What was measured:
[1] = molecular target: GST-Rheb wild type (recombinant, human Rheb)
Chain of GST-Rheb wild type (recombinant, human Rheb) (chain, as listed by the source): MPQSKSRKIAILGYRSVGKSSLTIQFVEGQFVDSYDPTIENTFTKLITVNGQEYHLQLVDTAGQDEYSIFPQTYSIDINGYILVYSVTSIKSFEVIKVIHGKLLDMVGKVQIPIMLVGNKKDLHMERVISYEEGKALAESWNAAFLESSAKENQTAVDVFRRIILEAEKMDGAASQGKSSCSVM

B1: FLAG-TSC1 and FLAG-TSC2 (TSC complex) (protein)
chain 1: MAQQANVGELLAMLDSPMLGVRDDVTAVFKENLNSDRGPMLVNTLVDYYLETSSQPALHILTTLQEPHDKHLLDRINEYVGKAATRLSILSLLGHVIRLQPSWKHKLSQAPLLPSLLKCLKMDTDVVVLTTGVLVLITMLPMIPQSGKQHLLDFFDIFGRLSSWCLKKPGHVAEVYLVHLHASVYALFHRLYGMYPCNFVSFLRSHYSMKENLETFEEVVKPMMEHVRIHPELVTGSKDHELDPRRWKRLETHDVVIECAKISLDPTEASYEDGYSVSHQISARFPHRSADVTTSPYADTQNSYGCATSTPYSTSRLMLLNMPGQLPQTLSSPSTRLITEPPQATLWSPSMVCGMTTPPTSPGNVPPDLSHPYSKVFGTTAGGKGTPLGTPATSPPPAPLCHSDDYVHISLPQATVTPPRKEERMDSARPCLHRQHHLLNDRGSEEPPGSKGSVTLSDLPGFLGDLASEEDSIEKDKEEAAISRELSEITTAEAEPVVPRGGFDSPFYRDSLPGSQRKTHSAASSSQGASVNPEPLHSSLDKLGPDTPKQAFTPIDLPCGSADESPAGDRECQTSLETSIFTPSPCKIPPPTRVGFGSGQPPPYDHLFEVALPKTAHHFVIRKTEELLKKAKGNTEEDGVPSTSPMEVLDRLIQQGADAHSKELNKLPLPSKSVDWTHFGGSPPSDEIRTLRDQLLLLHNQLLYERFKRQQHALRNRRLLRKVIKAAALEEHNAAMKDQLKLQEKDIQMWKVSLQKEQARYNQLQEQRDTMVTKLHSQIRQLQHDREEFYNQSQELQTKLEDCRNMIAELRIELKKANNKVCHTELLLSQVSQKLSNSESVQQQMEFLNRQLLVLGEVNELYLEQLQNKHSDTTKEVEMMKAAYRKELEKNRSHVLQQTQRLDTSQKRILELESHLAKKDHLLLEQKKYLEDVKLQARGQLQAAESRYEAQKRITQVFELEILDLYGRLEKDGLLKKLEEEKAEAAEAAEERLDCCNDGCSDSMVGHNEEASGHNGETKTPRPSSARGSSGSRGGGGSSSSSSELSTPEKPPHQRAGPFSSRWETTMGEASASIPTTVGSLPSSKSFLGMKARELFRNKSESQCDEDGMTSSLSESLKTELGKDLGVEAKIPLNLDGPHPSPPTPDSVGQLHIMDYNETHHEHS
chain 2: not shown
- GAP assay: hydrolysis of Rheb-bound [alpha-32P]GTP to GDP (thin-layer chromatography) (GST-Rheb T23M): TSC1/TSC2 were completely unable to promote hydrolysis of GTP bound to the S21L, T23M, Y35N, E40K and G63A mutants
- GAP assay: hydrolysis of Rheb-bound [alpha-32P]GTP to GDP (thin-layer chromatography) (GST-Rheb S21L): TSC1/TSC2 were completely unable to promote hydrolysis of GTP bound to the S21L, T23M, Y35N, E40K and G63A mutants
- GAP assay: hydrolysis of Rheb-bound [alpha-32P]GTP to GDP (thin-layer chromatography) (GST-Rheb Y35N): TSC1/TSC2 were completely unable to promote hydrolysis of GTP bound to the S21L, T23M, Y35N, E40K and G63A mutants
- GAP assay: hydrolysis of Rheb-bound [alpha-32P]GTP to GDP (thin-layer chromatography) [1]: Incubation with FLAG-TSC1 and FLAG-TSC2 led to hydrolysis of Rheb-GTP into Rheb-GDP
- GAP assay: hydrolysis of Rheb-bound [alpha-32P]GTP to GDP (thin-layer chromatography) (GST-Rheb E40K): TSC1/TSC2 were completely unable to promote hydrolysis of GTP bound to the S21L, T23M, Y35N, E40K and G63A mutants
- GAP assay: hydrolysis of Rheb-bound [alpha-32P]GTP to GDP (thin-layer chromatography) (GST-Rheb G29S): partial resistance to them was seen for Rheb mutants G29S and Q64L
- GAP assay: hydrolysis of Rheb-bound [alpha-32P]GTP to GDP (thin-layer chromatography) (GST-Rheb G63A): TSC1/TSC2 were completely unable to promote hydrolysis of GTP bound to the S21L, T23M, Y35N, E40K and G63A mutants
- GAP assay: hydrolysis of Rheb-bound [alpha-32P]GTP to GDP (thin-layer chromatography) (GST-Rheb Q64L): partial resistance to them was seen for Rheb mutants G29S and Q64L
